In US20250297004A1, “NECTIN-4 BINDING AGENTS” (INNATE PHARMA, priority 2022, published 2025):

Experiments:
[1] = target: T1, human Nectin-4 expressed on cells (human, UniProt Q96NY8 32-510); assay: flow cytometry on SUM190 cells, antibody at 10 ug/ml
T1 sequence: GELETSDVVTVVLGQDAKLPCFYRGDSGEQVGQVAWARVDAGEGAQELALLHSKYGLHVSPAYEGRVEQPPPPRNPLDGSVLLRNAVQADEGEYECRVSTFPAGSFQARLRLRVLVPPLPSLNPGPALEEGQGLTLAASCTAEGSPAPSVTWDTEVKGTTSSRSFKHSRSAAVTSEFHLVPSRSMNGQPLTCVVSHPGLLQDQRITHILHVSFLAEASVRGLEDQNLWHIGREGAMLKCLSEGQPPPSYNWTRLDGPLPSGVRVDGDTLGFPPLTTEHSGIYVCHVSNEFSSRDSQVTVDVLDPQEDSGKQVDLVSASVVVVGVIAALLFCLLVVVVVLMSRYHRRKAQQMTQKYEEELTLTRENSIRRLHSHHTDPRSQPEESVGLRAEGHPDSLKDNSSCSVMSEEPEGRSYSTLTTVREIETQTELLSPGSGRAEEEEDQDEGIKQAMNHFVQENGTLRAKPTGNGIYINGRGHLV

[2] = target: T1, human Nectin-4 expressed on cells; assay: flow cytometry on SUM185 cells, antibody at 10 ug/ml
[3] = target: T1, human Nectin-4 expressed on cells; assay: flow cytometry (FL2-A) on SUM185 human breast cancer cells; unstained cells 71.5
[4] = target: HER2 on human breast cancer tumor cells (human) (UniProt P04626); assay: as above
[5] = tested on: UC (patients); conditions: EV-201 Phase 2 study; cited from earlier work
[6] = tested on: SUM185 cells; assay: Comparative in vitro killing of SUM185 cells (model of anti-HER2 resistance), CTG; type: cell-based, human; conditions: 5 days, 5E7 ADC DAR=8, PADCEV DAR=4, FIG. 5
Experimental: This setting was used as a model of anti-HER2 resistance. SUM185 cells express Nectin-4 at relatively high levels, with Nectin-4 expression levels about twice that of HER2 in these cells (see Example 1). In this experiment, the 5E7 antibody was tested as an ADC having DAR=8 along with PADCEV™ (DAR=4, specification for FDA-approved PADCEV™) and control antibodies all conjugated with the same toxin at equivalent drug to antibody ratios. 5E7 was conjugated with a camptothecin analogue Dxd via the ggfg-Dxd linker.
Briefly, dose-ranges of each tested Ab (starting point 150 nM, dilution factor 2 for 3 points, then 5 for 5 points) were incubated on cells for 5 days before cell viability measurement by addition of CTG substrate. Luminescence vs. Ab concentration was plotted on graph.
For each ADC, a concentration range of ADC was incubated with nectin-4-expressing cells. After incubation, CTG substrate was added at 1:1 ratio and the luminescent signal was read with a plate reader (Enspire), allowing quantification of the ATP present (indicator of metabolically active cells) which was proportional to cell viability.

[7] = tested on: MC-38 cells endogenously expressing MDR1 P-glycoprotein (Pgp), engineered to express Nectin-4; assay: In vitro efficacy of ADCs in Pgp-expressing cancer model (CTG); type: cell-based, murine; conditions: for anti-tumor activity in presence or absence of the Pgp inhibitor cyclosporine: 150 nM ADC, normalized to control antibody, cyclosporin A 5 μM, FIG. 10B
Experimental: MC-38 cells that endogenously express MDR1 P-glycoprotein (Pgp) were engineered to express Nectin-4 and cultured in DMEM+10% FBS. Cells were either treated with vehicle (DSMO) or with cyclosporin A (5 μM, stock solution in DMSO) known to act as an inhibitor of Pgp, in presence of ADCs.
The ADCs and the equivalent isotype control ADCs were used at dose range from 150 to 2.3 10^−3 nM. After five days of co-incubation with cells, cell viability was measured by addition of Cell Titer Glo™ (CTG) substrate. Luminescence vs. Ab concentration was plotted.

[8] = target: T2, cynomolgus Nectin-4 protein expressed on CHO cells (cynomolgus, UniProt Q96NY8 32-510 (human entry)); assay: flow cytometry on CHO cells expressing cynomolgus Nectin-4, Median MFI (PE)
T2 construct: also called Cyno Nectin-4 V5
T2 chain: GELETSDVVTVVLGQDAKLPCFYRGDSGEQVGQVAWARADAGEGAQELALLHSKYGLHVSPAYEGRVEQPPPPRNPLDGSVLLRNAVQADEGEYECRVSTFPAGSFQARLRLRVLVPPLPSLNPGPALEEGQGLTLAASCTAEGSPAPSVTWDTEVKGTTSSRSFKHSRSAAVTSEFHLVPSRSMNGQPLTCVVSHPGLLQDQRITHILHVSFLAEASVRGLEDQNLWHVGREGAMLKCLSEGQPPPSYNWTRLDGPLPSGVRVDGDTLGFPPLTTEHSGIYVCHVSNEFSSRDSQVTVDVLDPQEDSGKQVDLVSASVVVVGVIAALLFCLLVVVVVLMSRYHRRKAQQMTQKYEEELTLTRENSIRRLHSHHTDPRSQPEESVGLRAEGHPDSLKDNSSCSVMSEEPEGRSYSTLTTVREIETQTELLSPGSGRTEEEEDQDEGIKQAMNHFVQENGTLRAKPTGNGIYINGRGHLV
Experimental: (§1) Anti-Nectin-4 antibodies were tested by flow cytometry for binding to different CHO cell lines made to express respectively the mouse, cynomolgus and rat Nectin-4 protein (including an N-terminal V5 tag not shown in the sequences below).

[9] = target: T3, rat Nectin-4 protein expressed on CHO cells (rat, UniProt Q8R007 31-508 (mouse entry)); assay: flow cytometry on CHO cells expressing rat Nectin-4, Median MFI (PE)
T3 construct: no cleavage site is stated; also called Rat Nectin-4 V5
T3 chain: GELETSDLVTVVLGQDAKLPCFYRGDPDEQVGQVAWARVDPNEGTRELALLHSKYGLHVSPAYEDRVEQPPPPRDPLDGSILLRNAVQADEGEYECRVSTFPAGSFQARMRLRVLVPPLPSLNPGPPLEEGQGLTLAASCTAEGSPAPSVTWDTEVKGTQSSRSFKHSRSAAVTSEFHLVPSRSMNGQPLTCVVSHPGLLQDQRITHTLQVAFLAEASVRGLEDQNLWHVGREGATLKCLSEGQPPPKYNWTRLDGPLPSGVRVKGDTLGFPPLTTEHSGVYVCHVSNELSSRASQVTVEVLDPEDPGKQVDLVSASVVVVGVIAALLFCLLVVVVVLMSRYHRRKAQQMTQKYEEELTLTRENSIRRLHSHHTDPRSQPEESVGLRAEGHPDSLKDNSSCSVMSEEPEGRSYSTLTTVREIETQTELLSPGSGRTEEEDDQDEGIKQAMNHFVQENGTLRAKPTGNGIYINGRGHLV
Experimental: as §1

[10] = tested on: SUM190 cells subcutaneously engrafted in CB17-SCID mice; assay: In vivo efficacy of Dxd and exatecan ADCs in SUM190 model; parameters: species or system mouse; conditions: single i.v. injection 10 mg/kg; FIG. 9C
Experimental: Human breast cancer cell line SUM190PT was cultured in the following cell culture medium containing Ham's F12, FBS 1 g/L, HEPES 10 mM, Ethanolamine 5 mM, Insulin 5 μg/mL, Hydrocortisone 1 μg/mL, Apo-Transferrin 5 μg/mL, Triiodo Thyronine (T3) 6.7 ng/ml, Sodium selenite 8.7 ng/ml.
Immunodeficient CB17-SCID mice were used at 7 to 8 weeks of age. […] The ggfg-Dxd linker will release Dxd (deruxtecan) upon cleavage and the PEG (8U)-Val-Ala-PAB-Exatecan linker will release exatecan upon cleavage.
SUM190 cells were subcutaneously engrafted in CB17-SCID immunodeficient mice at the dose of 0.5 million in 100 μl of Matrigel containing growth factor diluted at ½ in PBS. At day 21, when tumors reached a mean volume at 146.9±63.2 mm^3 or 213.2±77.5 mm^3 depending on the experiment, mice were randomized into groups of 8 or 9 mice depending on the experiment and treated intravenously with a single injection of 3 or 10 mg/kg body weight ADC or PBS as control. Tumor growths were followed twice a week. Kaplan Meier survival curves were established by using GraphPad Prism V7 software according to the following criteria: when the tumor volume reached 1500 mm^3, mice were euthanized and considered dead on the day of sacrifice (D). When tumors were highly necrotic, mice were euthanized and considered dead on the same day (D).

## anti-Nectin-4 antibody (ASG-22ME modified as a human IgG1 isotype containing a N297Q mutation)
[1]
  MFI: 991 MFI
[2]
  MFI: 4330 MFI

## Control Antibody
[3]
  Median of fluo.: 94.5
[4]
  Median of fluo.: 94.5

## PADCEV™
[5]
  CR (complete response rate): 12%
  ORR (objective response rate): 44%
  discontinuation due to clinical symptoms: 5%
  discontinuation due to progressive disease as assessed by RECIST: 48%
  patients that discontinued experienced adverse events, notably neuropathy: 18%
[6]
  killing of SUM185 cells / reduction of cell viability: able to kill the SUM185 more efficiently than ENHERTU™
[7]
  anti-tumor activity in presence or absence of the Pgp inhibitor cyclosporine: negatively affected by Pgp

B1: enfortumab (antibody, V domains shown)
VH: EVQLVESGGGLVQPGGSLRLSCAASGFTFSSYNMNWVRQAPGKGLEWVSYISSSSSTIYYADSVKGRFTISRDNAKNSLSLQMNSLRDEDTAVYYCARAYYYGMDVWGQGTTVTVSS
VL: DIQMTQSPSSVSASVGDRVTITCRASQGISGWLAWYQQKPGKAPKFLIYAASTLQSGVPSRFSGSGSGTDFTLTISSLQPEDFATYYCQQANSFPPTFGGGTKVEIKR
[8]
  EC50 (read off the curve): ~0.08 µg/mL
[9]
  EC50 (read off the curve): ~0.2 µg/mL

B2: 5E7-exatecan: 5E7 conjugated to the exatecan linker PEG (8U)-Val-Ala-PAB-Exatecan (drawing 79), DAR=8 (conjugate)
VH: QVQLQQPGAELVKPGASVKLSCKASGYIFTSYWMHWVKQRPGQGLEWIGEIDPSDSYTNYNQKFKGKATLTLDKSSSTTYMQLSSLTSEDSAVYYCVRGYGNYGDYWGQGTTLTVSSASTKGP
VL: DVVMTQAAFSNPVTLGTSASISCRSSKSLLHSNGITYLYWYLQKPGQSPQLLIYQMSNLASGVPDRFSSSGSGTDFTLRISRVEAEDVGVYYCAQNLELPWTFGGGTKLEIKRTVAAP
[10]
  efficiency in controlling tumor growth in mice: higher efficiency in controlling tumor growth in mice compared 5E7 conjugated with ggfg-Dxd
[7]
  anti-tumor activity in presence or absence of the Pgp inhibitor cyclosporine: highly effective
[7]; MC-38 Pgp/Nectin-4 cells, 5 days, setting of drug resistance, FIG. 10A
  decrease of cell viability (luminescence): highly potent to decrease cell viability
